For assay [1], the target named is HCMV virus particles, strain TB40/E. Put plainly: cell-based or functional assay.
The target is the same in assay [2]. Put plainly: immunofluorescence: intensity of anti-human Fc staining per virus particle on HFFs at different PDGFR-alpha-Fc concentrations.

For orientation: EC50 means the concentration at which the effect is half-maximal. A lower EC50 goes with an effect from little substance. In assay [1], “soluble PDGFR-alpha-Fc chimera (R&D 6765-PR-050) (Fc fusion)” had an EC50 of inhibition of infection of HECs (IE antigen staining) of 0.02 to 0.05 µg/mL; an EC50 of inhibition of infection of HFFs (IE antigen staining) of 0.01 to 0.02 µg/mL; a complete abrogation of infection of HFFs of 200 ng/mL; an infectivity of already adsorbed virus on HFFs (200 ng/ml, post adsorption) of 50%. In assay [1], the reduction of adsorption of pre-treated virus particles to HECs (100 ng/ml) came to 75%, the reduction of adsorption of pre-treated virus particles to HFFs (100 ng/ml) was 50% and the reduction of penetration of pre-treated virus particles into HFFs (100 ng/ml) was determined as 75%. Further, in assay [2], the EC50 is 0.108 µg/mL.
